Measured values from US20100291106A1 (Novartis, published 2010).
Blank lines part the entries; values can stand above or below the binder they belong to.

How the values were obtained:
[1] = molecular target: T1, cynomolgus complement C3b protein (cynomolgus monkey (Macaca fascicularis)); assay: SPR (Biacore), C3b captured by anti-C3d antibody, Fab as analyte
T1 construct: also called cyno C3b; cynoC3b

[2] = molecular target: T2, human complement C3b protein (human, UniProt P01024 23-667; P01024 749-1663); assay: as above
T2 construct: Purified plasma C3b (Complement Technology, Quidel); Depending on the assay it was captured by an anti-C3d antibody, coated, biotinylated or coupled to beads; also called human C3b; huC3b
T2 sequence (P01024 23-667 P314L, chain 1 of 2): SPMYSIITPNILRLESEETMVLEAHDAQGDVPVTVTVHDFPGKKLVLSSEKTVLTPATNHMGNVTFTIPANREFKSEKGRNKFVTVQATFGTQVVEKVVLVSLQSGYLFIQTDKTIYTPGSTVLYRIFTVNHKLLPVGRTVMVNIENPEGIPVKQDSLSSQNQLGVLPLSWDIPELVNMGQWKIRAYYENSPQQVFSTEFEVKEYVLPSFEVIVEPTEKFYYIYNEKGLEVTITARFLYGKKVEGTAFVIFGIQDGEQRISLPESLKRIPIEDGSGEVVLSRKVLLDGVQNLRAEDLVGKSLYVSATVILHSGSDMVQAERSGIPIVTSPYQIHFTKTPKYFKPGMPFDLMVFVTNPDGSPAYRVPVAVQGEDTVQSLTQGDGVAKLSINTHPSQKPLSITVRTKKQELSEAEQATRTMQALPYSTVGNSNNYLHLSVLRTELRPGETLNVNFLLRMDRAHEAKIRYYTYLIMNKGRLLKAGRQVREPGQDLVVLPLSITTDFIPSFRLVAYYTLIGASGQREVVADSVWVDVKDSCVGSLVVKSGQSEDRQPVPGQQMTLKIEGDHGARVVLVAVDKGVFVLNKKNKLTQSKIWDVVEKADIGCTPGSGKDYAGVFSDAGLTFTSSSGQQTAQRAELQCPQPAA
T2 sequence (P01024 749-1663, chain 2 of 2): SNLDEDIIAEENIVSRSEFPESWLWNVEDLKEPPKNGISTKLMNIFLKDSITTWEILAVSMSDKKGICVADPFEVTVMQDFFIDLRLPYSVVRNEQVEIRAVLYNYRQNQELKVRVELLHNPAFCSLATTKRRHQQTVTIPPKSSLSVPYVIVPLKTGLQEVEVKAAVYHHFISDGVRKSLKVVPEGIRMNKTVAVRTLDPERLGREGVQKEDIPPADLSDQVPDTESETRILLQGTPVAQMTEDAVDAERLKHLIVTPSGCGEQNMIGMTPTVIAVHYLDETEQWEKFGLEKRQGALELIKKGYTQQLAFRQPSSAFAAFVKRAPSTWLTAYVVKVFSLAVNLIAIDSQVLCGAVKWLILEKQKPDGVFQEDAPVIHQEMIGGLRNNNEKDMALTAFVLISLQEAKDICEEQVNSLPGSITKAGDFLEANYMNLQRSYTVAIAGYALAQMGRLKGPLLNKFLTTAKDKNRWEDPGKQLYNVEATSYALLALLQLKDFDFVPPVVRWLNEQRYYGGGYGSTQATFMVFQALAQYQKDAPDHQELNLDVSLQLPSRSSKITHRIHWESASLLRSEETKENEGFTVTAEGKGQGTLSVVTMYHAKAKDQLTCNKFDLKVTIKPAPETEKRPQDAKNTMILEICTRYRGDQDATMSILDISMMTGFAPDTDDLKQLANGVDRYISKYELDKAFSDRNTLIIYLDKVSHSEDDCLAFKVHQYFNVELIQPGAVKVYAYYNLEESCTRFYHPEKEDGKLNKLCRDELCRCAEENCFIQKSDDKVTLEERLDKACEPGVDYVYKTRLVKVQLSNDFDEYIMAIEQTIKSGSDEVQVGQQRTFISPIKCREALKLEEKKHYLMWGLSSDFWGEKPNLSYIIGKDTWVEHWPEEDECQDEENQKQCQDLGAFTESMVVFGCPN

[3] = molecular target: T1, cynomolgus complement C3b protein; assay: solution equilibrium titration (SET), ECL detection, Fab
[4] = molecular target: T2, human complement C3b protein; assay: as above
human C3d [5] = molecular target: T3, human C3d (human, UniProt P01024 1002-1303); assay: cross reactivity, ELISA on C3d, anti-His detection
T3 construct: domain: C3d
T3 sequence (P01024 1002-1303 limits assumed): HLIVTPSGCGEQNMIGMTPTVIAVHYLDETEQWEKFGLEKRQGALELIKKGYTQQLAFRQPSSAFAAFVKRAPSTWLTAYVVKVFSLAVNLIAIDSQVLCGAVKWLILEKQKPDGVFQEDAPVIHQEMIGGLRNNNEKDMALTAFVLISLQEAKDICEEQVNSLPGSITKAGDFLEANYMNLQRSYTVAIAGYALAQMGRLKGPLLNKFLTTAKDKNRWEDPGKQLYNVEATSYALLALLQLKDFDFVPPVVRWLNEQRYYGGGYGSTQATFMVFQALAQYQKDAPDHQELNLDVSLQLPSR
Protocol: In order to determine whether the anti-C3b antibodies described herein can bind to complement pathway components iC3b and C3c, the following steps were performed: Directly add iC3b(complement Technologies A115), C3d (complement Technologies A117), or C3c (complement Technologies A116), at 2 μg/ml in Carbonate Buffer onto Coat Maxisorp plate Nunc (442404) at 100 μl per well. Seal plates and incubate at 4° C. overnight. Aspirate plates and wash 3 times with PBS/0.5% Tween 20. Block plates with Diluent (PBS, 4% BSA Fraction V (Fisher ICN16006980), 0.1% Tween 20 (Sigma P1379), 0.1% Triton X-100 (Sigma P234729)) and incubate for 2 h at room temperature or overnight at 4° C. Then wash plates once with PBS/0.5% Tween 20. Dilute Fabs at 100 nM and subsequent dilutions (or higher concentration if needed) in diluent and plate 100 μl per well. Incubate at room temperature for 1 h. Wash plates 3 times with PBS/0.5% Tween 20. Add 100 μl/well of anti-Histidine-HRP monoclonal detection antibody at 1:400 in diluent and incubate at room temperature for 1 h. Then wash 4 times with PBS/0.5% Tween 20. Add 100 μl of TMB substrate (Pierce 34028) and incubate at room temperature for up to 5 min. Add 50 μl of Stop solution (2N Sulfuric Acid) to each well and read plate at 450 nm and correct for plastic reading at 570 nm.

human C5 [6] = molecular target: T4, human C5 (human, UniProt P01031 19-673; P01031 678-1676); assay: cross reactivity, capture ELISA with anti-C5 capture antibody, anti-His detection
T4 construct: Captured by an anti-C5 antibody in the ELISA
T4 sequence (P01031 19-673 limits assumed, chain 1 of 2): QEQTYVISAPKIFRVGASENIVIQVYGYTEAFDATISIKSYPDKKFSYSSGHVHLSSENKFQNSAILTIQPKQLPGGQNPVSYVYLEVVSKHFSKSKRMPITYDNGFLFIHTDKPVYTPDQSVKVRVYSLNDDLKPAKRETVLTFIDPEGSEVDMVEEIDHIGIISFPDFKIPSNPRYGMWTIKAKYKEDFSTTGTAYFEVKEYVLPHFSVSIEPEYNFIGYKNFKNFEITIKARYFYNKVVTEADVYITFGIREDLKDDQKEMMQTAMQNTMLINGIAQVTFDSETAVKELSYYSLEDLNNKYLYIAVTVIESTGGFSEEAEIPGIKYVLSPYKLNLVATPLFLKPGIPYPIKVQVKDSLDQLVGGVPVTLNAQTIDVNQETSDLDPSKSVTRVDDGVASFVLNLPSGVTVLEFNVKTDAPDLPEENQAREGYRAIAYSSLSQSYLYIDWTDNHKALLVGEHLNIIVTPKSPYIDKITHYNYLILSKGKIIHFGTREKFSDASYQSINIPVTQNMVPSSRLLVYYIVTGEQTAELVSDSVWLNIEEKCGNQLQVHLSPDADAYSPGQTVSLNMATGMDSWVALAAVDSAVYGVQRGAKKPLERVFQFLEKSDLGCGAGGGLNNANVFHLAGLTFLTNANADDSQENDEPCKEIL
T4 sequence (P01031 678-1676 limits assumed, chain 2 of 2): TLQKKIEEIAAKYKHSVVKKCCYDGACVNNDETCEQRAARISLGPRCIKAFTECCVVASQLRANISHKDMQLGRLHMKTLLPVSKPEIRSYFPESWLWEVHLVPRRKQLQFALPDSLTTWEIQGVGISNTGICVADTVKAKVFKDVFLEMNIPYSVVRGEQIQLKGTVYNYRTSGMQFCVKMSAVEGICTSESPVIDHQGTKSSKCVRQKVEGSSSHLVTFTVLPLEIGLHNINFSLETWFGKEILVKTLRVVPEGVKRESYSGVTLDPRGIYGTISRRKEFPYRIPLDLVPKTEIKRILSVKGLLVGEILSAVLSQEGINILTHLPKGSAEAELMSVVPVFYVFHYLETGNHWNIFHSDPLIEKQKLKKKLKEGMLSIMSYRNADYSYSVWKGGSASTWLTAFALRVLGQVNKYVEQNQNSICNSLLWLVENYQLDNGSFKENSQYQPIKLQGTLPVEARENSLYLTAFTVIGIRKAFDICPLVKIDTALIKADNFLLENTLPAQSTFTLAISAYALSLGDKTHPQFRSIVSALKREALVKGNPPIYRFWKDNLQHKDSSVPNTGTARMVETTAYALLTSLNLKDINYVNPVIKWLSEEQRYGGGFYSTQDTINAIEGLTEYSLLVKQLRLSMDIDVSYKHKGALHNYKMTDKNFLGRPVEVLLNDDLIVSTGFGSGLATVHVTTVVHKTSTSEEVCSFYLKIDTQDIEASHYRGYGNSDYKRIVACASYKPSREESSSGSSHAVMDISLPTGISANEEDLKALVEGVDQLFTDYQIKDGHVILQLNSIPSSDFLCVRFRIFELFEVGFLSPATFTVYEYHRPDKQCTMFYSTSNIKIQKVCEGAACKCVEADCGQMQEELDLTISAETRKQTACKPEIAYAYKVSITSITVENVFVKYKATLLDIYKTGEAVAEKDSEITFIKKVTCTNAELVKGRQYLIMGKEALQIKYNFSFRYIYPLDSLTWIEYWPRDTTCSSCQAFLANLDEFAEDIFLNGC

[7] = molecular target: T1, cynomolgus complement C3b protein; assay: cell-based or functional assay
[8] = molecular target: T2, human complement C3b protein; assay: cell-based or functional assay
[9] = molecular target: T2, human complement C3b protein; assay: ELISA, C3b or C3 captured by anti-C3d antibody
Protocol: The C3b antibodies were examined to determine whether they were selective for binding to C3b relative to the C3b precursor C3. Briefly, binding selectivity for C3b was determined by performing the following steps. Coat Maxisorp plate Nunc (442404) with anti-C3d rabbit monoclonal (abcam 17453) at 2 μg/ml in Carbonate Buffer at 100 μl/well. Seal plates and incubate at 4° C. overnight. Aspirate plates and wash 3 times with PBS/0.5% Tween 20. Block plates with Diluent (PBS, 4% BSA Fraction V (Fisher ICN16006980), 0.1% Tween 20 (Sigma P1379), 0.1% Triton X-100 (Sigma P234729)) and incubate for 2 h at room temperature or overnight at 4° C. Then wash plates once with PBS/0.5% Tween 20. Dilute purified C3b (complement technologies A114 lot 21) and C3 (complement technologies A113c) at 1 μg/ml in diluent and plate 100 μl per well. Incubate for 1 h at room temperature. Then wash 3 times with PBS/0.5% Tween 20.
Dilute Fabs at 100 nM and subsequent dilutions (or higher concentration) in diluent and plate 100 μl per well. Incubate at room temperature for 1 h. Wash plates 3 times with PBS/0.5% Tween 20. Add 100 μl/well of anti-Histidine-HRP monoclonal detection antibody at 1:400 in diluent and incubate at room temperature for 1 h. Then wash 4 times with PBS/0.5% Tween 20. Add 100 μl of TMB substrate (Pierce 34028) and incubate at room temperature for up to 5 min. Add 50 μl of Stop solution (2N Sulfuric Acid) to each well and read plate at 450 nm and correct for plastic reading at 570 nm.

[10] = molecular target: T2, human complement C3b protein; assay: cell-based or functional assay; remark: listed apart in the source
[11] = molecular target: T2, human complement C3b protein; assay: AlphaScreen bead proximity, C3b-Acceptor beads pre-incubated with antibody, then biotinylated fH and SA-Donor beads; blocked ligand: fH [C]
Protocol: In brief, purified C3b and fP were conjugated to unconjugated acceptor or donor beads (PerkinElmer) using AminoLink Reductant (Pierce) during a 48 h incubation at room temperature. Beads were quenched using Carboxymethoxylamine Hemihydrochloride (Aldrich), and purified by centrifugation at 13000 rpm and three washes with 0.1M TBST. Purified fB(D24G/N260D) and fH were biotinylated during a 30 min incubation with 20-fold molar excess of NHS-Chromogenic-biotin (Pierce) at room temperature, and purified using Zeba 0.5 ml desalting columns (Pierce).
For C3b-C3b and C3b-fP proximity, Fabs or IgGs respectively were pre-incubated with C3b-Acceptor beads (20 μg/ml) for 60 min at room temperature. C3b-Donor beads or fP-Donor beads (20 μg/ml) were then added, and the plate was incubated overnight at room temperature before reading. For C3b-fB and C3b-fH proximity, antibodies were pre-incubated with C3b-Acceptor beads (20 μg/ml) for 60 minutes at room temperature. Biotinylated fB(D24G/N260D) or fH were then added, and incubated for 60 minutes at room temperature. SA-Donor beads were then added (20 μg/ml) and the plate was incubated overnight at room temperature before reading. Plates were read on the BMG Pherastar (ex=680, em=520-620).

human C3d [12] = molecular target: T3, human C3d; assay: C3d binding ELISA, IgG titrated from about 0.006 to 100 nM
[13] = molecular target: T1, cynomolgus complement C3b protein; assay: SPR (Biacore T100), C3b captured by anti-C3d antibody, IgG as analyte, 1:1 model
[14] = molecular target: T2, human complement C3b protein; assay: as above
human C5 [15] = molecular target: T4, human C5; assay: Direct ELISA at 2 ug/ml C5, 200 nM Fab

Kd [1]: 0.004 nM | Kd [2]: 0.039 nM | Kd [3]: 0.02 nM | Kd [4]: 0.1 nM | binding result (human C3d [5]): no binding | binding result (human C5 [6]): no binding | C3b Dep (nM), cyno serum, IC50 [7]: 9 nM | HA (nM), 10% cyno serum, IC50 [7]: 43 nM | MAC Dep (nM), cyno serum, IC50 [7]: 2 nM | C3b Dep (nM), human serum, IC50 [8]: 7 nM | HA (nM), 10% human serum, IC50 [8]: 27 nM | MAC Dep (nM), human serum, IC50 [8]: 1 nM
B3: MOR09141 Fab (Fab, V domains shown)
VH: QVQLVQSGAEVKKPGSSVKVSCKASGGTFSSYTFSWVRQAPGQGLEWMGNILPIFGDANYAQKFQGRVTITADESTSTAYMELSSLRSEDTAVYYCARNKGAFYYMSTYPSLDVWGQGTLVTVSS
VL: DIQMTQSPSSLSASVGDRVTITCRASQNINYYLNWYQQKPGKAPKLLIYDAFSLQSGVPSRFSGSGSGTDFTLTISSLQPEDFATYYCQQSIAVPPFTFGQGTKVEIKR
notes: also called Fab 9141

binding result (human C5 [15]): no binding (tested: 200 nM)
B4: 9609 (Fab, V domains shown)
VH: EVQLVQSGAEVKKPGSSVKVSCKASGGTFSSYTFSWVRQAPGQGLEWMGNILPIFGDANYAQKFQGRVTITADESTSTAYMELSSLRSEDTAVYYCARNKGAFYYMSTYPSLDVWGQGTLVTVSS
VL: DIQMTQSPSSLSASVGDRVTITCRASQNINYYLNWYQQKPGKAPKLLIYDAFSLQSGVPSRFSGSGSGTDFTLTISSLQPEDFATYYCQQSWSVPPFTFGQGTKVEIK
notes: the IgG is m13; also called 9609 Fab format; MOR9609 Fab

Kd [1]: 0.009 nM | Kd [3]: 0.078 nM | binding result (human C5 [6]): no binding | C3b Dep (nM), cyno serum, IC50 [7]: 5 nM | HA (nM), 10% cyno serum, IC50 [7]: 62 nM | MAC Dep (nM), cyno serum, IC50 [7]: 6 nM
B6: MOR09373 Fab (Fab, V domains shown)
VH: QVQLVQSGAEVKKPGASVKVSCKASGYTFTSYSMHWVRQAPGQGLEWMGLINPYNGNTHYAQKFQGRVTMTRDTSISTAYMELSSLRSEDTAVYYCARMLRFDVWGQGTLVTVSS
VL: DIALTQPASVSGSPGQSITISCTGTSSDGGGYNYVSWYQQHPGKAPKLMIYGVSNRPSGVSNRFSGSKSGNTASLTISGLQAEDEADYYCQTYTRYSDSPVFGGGTKLTVLG
notes: also called Fab 9373

Second part, the binder before the results:

B1: MOR09136 Fab (Fab, V domains shown)
VH: QVQLVQSGAEVKKPGSSVKVSCKASGGTFSSYTFSWVRQAPGQGLEWMGNILPIFGDANYAQKFQGRVTITADESTSTAYMELSSLRSEDTAVYYCARNKGAFYYMSTYPSLDVWGQGTLVTVSS
VL: DIQMTQSPSSLSASVGDRVTITCRASQNINYYLNWYQQKPGKAPKLLIYDAFSLQSGVPSRFSGSGSGTDFTLTISSLQPEDFATYYCQQSWSVPPFTFGQGTKVEIKR
notes: also called Fab 9136
Kd [1]: 0.005 nM | Kd [2]: 0.075 nM | Kd [3]: 0.016 nM | Kd [4]: 0.096 nM | binding result (human C3d [5]): no binding | binding result (human C5 [6]): no binding | C3b Dep (nM), cyno serum, IC50 [7]: 3 nM | HA (nM), 10% cyno serum, IC50 [7]: 52 nM | MAC Dep (nM), cyno serum, IC50 [7]: 3 nM | C3b Dep (nM), human serum, IC50 [8]: 8 nM | HA (nM), 10% human serum, IC50 [8]: 32 nM | MAC Dep (nM), human serum, IC50 [8]: 2 nM

B2: MOR09609 IgG (antibody, V domains shown)
VH: EVQLVQSGAEVKKPGSSVKVSCKASGGTFSSYTFSWVRQAPGQGLEWMGNILPIFGDANYAQKFQGRVTITADESTSTAYMELSSLRSEDTAVYYCARNKGAFYYMSTYPSLDVWGQGTLVTVSS
VL: DIQMTQSPSSLSASVGDRVTITCRASQNINYYLNWYQQKPGKAPKLLIYDAFSLQSGVPSRFSGSGSGTDFTLTISSLQPEDFATYYCQQSWSVPPFTFGQGTKVEIKR
notes: Germlined human IgG1 with leucines 234 and 235 changed to alanines, kappa; also called antibody 9609
fold binding selectivity for C3b over C3 [9]: > 1000 fold | MAC deposition on zymosan, IC50 [10]: ≤ 5 nM | hemolysis of rabbit red blood cells, 10% human or cynomolgus serum, IC50 [10]: ≤ 50 nM | inhibition of C3a and C5a generation during hemolysis, IC50 [10]: ≤ 50 nM | IC50 (read off the curve) [11]: ~0.1 nM | binding result (human C3d [12]): no binding (tested: 100 nM) | Kd [13]: 0.0228 nM | koff [13]: 4.6e-05 s⁻¹ | kon [13]: 2.02e+06 M⁻¹ s⁻¹ | Kd [14]: 0.0022 nM | koff [14]: 3.16e-06 s⁻¹ | kon [14]: 1.44e+06 M⁻¹ s⁻¹

B5: MOR09610 IgG (antibody, V domains shown)
VH: EVQLVQSGAEVKKPGSSVKVSCKASGGTFSSYTFSWVRQAPGQGLEWMGNILPIFGDANYAQKFQGRVTITADESTSTAYMELSSLRSEDTAVYYCARNKGAFYYMSTYPSLDVWGQGTLVTVSS
VL: DIQMTQSPSSLSASVGDRVTITCRASQNINYYLNWYQQKPGKAPKLLIYDAFSLQSGVPSRFSGSGSGTDFTLTISSLQPEDFATYYCQQSIAVPPFTFGQGTKVEIKR
notes: Germlined human IgG1 with leucines 234 and 235 changed to alanines, kappa; also called antibody 9610
fold binding selectivity for C3b over C3 [9]: > 1000 fold | MAC deposition on zymosan, IC50 [10]: ≤ 5 nM | hemolysis of rabbit red blood cells, 10% human or cynomolgus serum, IC50 [10]: ≤ 50 nM | inhibition of C3a and C5a generation during hemolysis, IC50 [10]: ≤ 50 nM | IC50 (read off the curve) [11]: ~0.2 nM | binding result (human C3d [12]): no binding (tested: 100 nM) | Kd [13]: 0.0335 nM | koff [13]: 6.41e-05 s⁻¹ | kon [13]: 1.91e+06 M⁻¹ s⁻¹ | Kd [14]: 0.0049 nM | koff [14]: 4.02e-06 s⁻¹ | kon [14]: 820000 M⁻¹ s⁻¹

B7: MOR09674 IgG (antibody, V domains shown)
VH: EVQLVQSGAEVKKPGASVKVSCKASGYTFTSYSMHWVRQAPGQGLEWMGLINPYNGNTHYAQKFQGRVTMTRDTSISTAYMELSSLRSEDTAVYYCARMLRFDVWGQGTLVTVSS
VL: ESALTQPASVSGSPGQSITISCTGTSSDGGGYNYVSWYQQHPGKAPKLMIYGVSNRPSGVSNRFSGSKSGNTASLTISGLQAEDEADYYCQTYTRYSDSPVFGGGTKLTVLG
notes: Germlined human IgG1 with leucines 234 and 235 changed to alanines, lambda; also called antibody 9674
Kd [13]: 0.00713 nM | koff [13]: 5.95e-05 s⁻¹ | kon [13]: 8.34e+06 M⁻¹ s⁻¹
